Patent US20260242478A1 (published 2026)
Where no end group is shown, it is not given here.

How the values were obtained:
[1] = target: T1, Anti-CD28 Fab (SEQ ID NOs: 696, 697); test: phage binding ELISA; Fab-coated wells pre-incubated with CD28 antigen as competitor;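 also: clonal phage supernatants added to wells preincubated with CD28 antigen or blocking buffer only, bound phage detected with HRP-conjugated anti-M13 antibody, buffer-only wells as control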
T1 construct: In the phage ELISA the Fab was biotinylated and captured on neutravidin coated plates
T1 sequence (VH, as listed by the source, chain 1 of 2): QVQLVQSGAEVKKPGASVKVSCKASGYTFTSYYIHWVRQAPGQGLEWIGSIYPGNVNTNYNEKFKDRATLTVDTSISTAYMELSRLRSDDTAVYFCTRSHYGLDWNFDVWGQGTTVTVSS
T1 sequence (VL, as listed by the source, chain 2 of 2): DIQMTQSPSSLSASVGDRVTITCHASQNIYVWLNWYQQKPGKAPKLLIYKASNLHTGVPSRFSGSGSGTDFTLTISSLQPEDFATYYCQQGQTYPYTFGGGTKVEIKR
Experimental: (§1) Clonal phage were harvested as crude supematants and screened via standard ELISAs. […] Prior to the addition of clonal phage, wells were incubated with blocking buffer and CD28 antigen or blocking buffer alone. Without washing or aspirating, clonal phage supematants were then added to the wells and incubated for a short time. Wells were then washed followed by detection of bound phage using a horse radish conjugated anti-M13 antibody.

[2] = target: T1, Anti-CD28 Fab (SEQ ID NOs: 696, 697); test: phage binding ELISA; biotinylated anti-CD28 Fab on neutravidin plate, bound phage detected with anti-M13 HRP
Experimental: as §1

[3] = target: T2, Anti-CD28 Fab (SEQ ID NOs: 696, 697); test: phage ELISA; captured anti-CD28 Fab pre-incubated with CD28 antigen as competitor, anti-M13-HRP
T2 construct: In the phage ELISA the Fab was biotinylated and captured on neutravidin coated plates
T2 sequence (VH, as listed by the source, chain 1 of 2): as the sequence (VH, as listed by the source, chain 1 of 2) above
T2 sequence (VL, as listed by the source, chain 2 of 2): as the sequence (VL, as listed by the source, chain 2 of 2) above
Experimental: as §1

[4] = target: T2, Anti-CD28 Fab (SEQ ID NOs: 696, 697); test: phage ELISA; biotinylated anti-CD28 Fab on neutravidin plate, clonal phage detected with anti-M13-HRP
Experimental: as §1

[5] = target: T3, Anti-CD28 Fab (SEQ ID NOs: 696, 697); test: phage binding ELISA on captured anti-CD28 Fab; competitor: CD28 antigen pre-incubated in the well;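 also: clonal phage supernatants added briefly to wells preblocked with or without CD28, bound phage detected through an HRP-linked anti-M13 antibody, wells with blocking buffer alone as comparison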
T3 construct: Biotinylated and captured on neutravidin coated plates in the phage ELISA
T3 sequence (VH, as listed by the source, chain 1 of 2): as the sequence (VH, as listed by the source, chain 1 of 2) above
T3 sequence (VL, as listed by the source, chain 2 of 2): as the sequence (VL, as listed by the source, chain 2 of 2) above
Experimental: (§2) Clonal phage were harvested as crude supematants and screened via standard ELISAs. […] Prior to the addition of clonal phage, wells were incubated with blocking buffer and CD28 antigen or blocking buffer alone. Without washing or aspirating, clonal phage supematants were then added to the wells and incubated for a short time. Wells were then washed followed by detection of bound phage using a horse radish conjugated anti-M13 antibody. Clonal phage of interest were then sent for sequence analysis.

[6] = target: T3, Anti-CD28 Fab (SEQ ID NOs: 696, 697); test: phage binding ELISA; biotinylated anti-CD28 Fab on neutravidin plate, bound phage detected with anti-M13-HRP;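 also: clonal phage tested as crude supernatants, given a short incubation in the Fab-captured wells before bound phage were read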
Experimental: as §2

[7] = target: T4, Anti-CD28 Fab (SEQ ID NOs: 696, 697); test: phage binding ELISA on captured anti-CD28 Fab, wells pre-incubated with CD28 antigen as competitor
T4 construct: In the phage ELISA the Fab was biotinylated and captured on neutravidin coated plates
T4 sequence (VH, as listed by the source, chain 1 of 2): as the sequence (VH, as listed by the source, chain 1 of 2) above
T4 sequence (VL, as listed by the source, chain 2 of 2): as the sequence (VL, as listed by the source, chain 2 of 2) above
Experimental: as §2

[8] = target: T4, Anti-CD28 Fab (SEQ ID NOs: 696, 697); test: phage binding ELISA; biotinylated anti-CD28 Fab on neutravidin plate, bound phage detected with anti-M13-HRP;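 also: clonal phage tested as crude supernatants, given a short incubation in the Fab-captured wells before bound phage were read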
Experimental: as §2

Binder | Anti-CD28 Fab signal in the presence of CD28 [1] | Anti-CD28 Fab (SEQ ID NOs: 696, 697) signal [2] | Phage binding ELISA, Anti-CD28 Fab signal in the presence of CD28 [3] | Phage binding ELISA, Anti-CD28 Fab signal [4] | further results
TCAAGAHYAWPECF (peptide, not shown: large carriers, Clonal phage of the Peptide-92 optimisation library, tested as crude phage supernatant) [Phage-1487] | 0.06 | 1.72 | – | – | –
LCEEFFHYSWPVCL (peptide, not shown: large carriers, cysteine pairing not given here; also: displayed as fusion to phage pIII, pIII and linker not given here, Clonal phage of the Peptide-92 optimisation library, tested as crude phage supernatant) [Phage-1481] | 0.06 | 1.74 | – | – | –
MCSAGATYPWPMCL (peptide, not shown: large carriers, Clonal phage of the Peptide-92 optimisation library, tested as crude phage supernatant) [Phage-1484] | 0.06 | 1.73 | – | – | –
LCKPGVPYQWPTCF (tested as crude clonal phage supernatant) [Phage-1456 peptide (SEQ ID NO: 1752)] | – | – | 0.05 | 1.82 | –
TCAAGAAWPWPHCL (peptide, not shown: large carriers, cysteine pairing not given here; also: displayed as fusion to phage pIII, pIII and linker not given here, Clonal phage of the Peptide-92 optimisation library, tested as crude phage supernatant) [Phage-1482] | 0.06 | 1.73 | – | – | –
QCAAGAMWTWPACF (peptide, not shown: large carriers, Clonal phage of the Peptide-92 optimisation library, tested as crude phage supernatant) [Phage-1483] | 0.07 | 1.73 | – | – | –
TCAAGASFPWPWCL (peptide, not shown: large carriers, cysteine pairing not given here; also: fused to phage pIII protein, pIII and linker not given here, Clonal phage of the Peptide-92 optimisation library, tested as crude phage supernatant) [Phage-1476] | 0.06 | 1.75 | – | – | –
TCSAGFSYSWPACF (tested as crude clonal phage supernatant) [Phage-1447 peptide (SEQ ID NO: 1743)] | – | – | 0.07 | 1.86 | –
MCAAGAMYAWPTCL (peptide, not shown: large carriers, cysteine pairing not given here; also: fused to phage pIII protein, pIII and linker not given here, Clonal phage of the Peptide-92 optimisation library, tested as crude phage supernatant) [Phage-1475] | 0.09 | 1.75 | – | – | –
TCSAGAYYAWPVCL (tested as crude clonal phage supernatant) [Phage-1451 peptide (SEQ ID NO: 1747)] | – | – | 0.08 | 1.84 | –
TCSAGATYAWPACY (tested as crude clonal phage supernatant) [Phage-1449 peptide (SEQ ID NO: 1745)] | – | – | 0.14 | 1.84 | –
SCAAGAMWPWPVCV (tested as crude clonal phage supernatant) [Phage-1459 peptide (SEQ ID NO: 1755)] | – | – | 0.06 | 1.8 | –
RCRAGFSYNWPYCM (peptide, not shown: large carriers, Clonal phage of the Peptide-92 optimisation library, tested as crude phage supernatant) [Phage-1488] | 0.06 | 1.72 | – | – | –
TCSAGATFHWPQCF (tested as crude clonal phage supernatant) [Phage-1453 peptide (SEQ ID NO: 1749)] | – | – | 0.08 | 1.83 | –
TCSAGATYSWPFCF (tested as crude phage supernatant) [Phage-1534] | – | – | – | – | Anti-CD28 Fab signal in the presence of CD28 [5]: 0.07; Anti-CD28 Fab (SEQ ID NOs: 696, 697) signal [6]: 1.55
TCAAGASYPWPACL (Tested as clonal phage supernatant; not shown: fused to the pIII filament of the bacteriophage) [Phage-1445 (peptide-92 library clone, SEQ ID NO: 1741)] | – | – | – | – | Anti-CD28 Fab signal in the presence of CD28 (phage binding ELISA) [7]: 0.09; Anti-CD28 Fab signal (phage binding ELISA) [8]: 1.89
TCSAGAMYPWPWCV (peptide, not shown: large carriers, cysteine pairing not given here; also: fused to phage pIII protein, pIII and linker not given here, Clonal phage of the Peptide-92 optimisation library, tested as crude phage supernatant) [Phage-1478] | 0.08 | 1.75 | – | – | –
WCAAGATWPWPLCI (peptide, not shown: large carriers, Clonal phage of the Peptide-92 optimisation library, tested as crude phage supernatant) [Phage-1489] | 0.17 | 1.7 | – | – | –

Binder | Anti-CD28 Fab signal in the presence of CD28 [1] | Anti-CD28 Fab (SEQ ID NOs: 696, 697) signal [2] | Phage binding ELISA, Anti-CD28 Fab signal in the presence of CD28 [3] | Phage binding ELISA, Anti-CD28 Fab signal [4] | further results
LCAEGFDYSWPMCL (tested as crude phage supernatant) [Phage-1533] | – | – | – | – | Anti-CD28 Fab signal in the presence of CD28 [5]: 0.08; Anti-CD28 Fab (SEQ ID NOs: 696, 697) signal [6]: 1.55
TCAAGAMWQWPVCL (tested as crude clonal phage supernatant) [Phage-1457 peptide (SEQ ID NO: 1753)] | – | – | 0.06 | 1.81 | –
WCAAVFSYSWPLCL (peptide, not shown: large carriers, cysteine pairing not given here; also: displayed as fusion to phage pIII, pIII and linker not given here, Clonal phage of the Peptide-92 optimisation library, tested as crude phage supernatant) [Phage-1479] | 0.06 | 1.75 | – | – | –
TCSAVFSYTWSNCF (tested as crude phage supernatant) [Phage-1536] | – | – | – | – | Anti-CD28 Fab signal in the presence of CD28 [5]: 0.06; Anti-CD28 Fab (SEQ ID NOs: 696, 697) signal [6]: 1.54
PCSAGATYAWLYCV (tested as crude clonal phage supernatant) [Phage-1458 peptide (SEQ ID NO: 1754)] | – | – | 0.06 | 1.81 | –
TCSAGATYSWPQCL (tested as crude clonal phage supernatant) [Phage-1450 peptide (SEQ ID NO: 1746)] | – | – | 0.07 | 1.84 | –
TCAAGAVWGWPLCF (peptide, not shown: large carriers, Clonal phage of the Peptide-92 optimisation library, tested as crude phage supernatant) [Phage-1486] | 0.06 | 1.73 | – | – | –
SCAAGAAYPWPACL (tested as crude clonal phage supernatant) [Phage-1460 peptide (SEQ ID NO: 1756)] | – | – | 0.06 | 1.8 | –
TCAAGATYPWPSCL (peptide, not shown: large carriers, Clonal phage of the Peptide-92 optimisation library, tested as crude phage supernatant) [Phage-1485] | 0.05 | 1.73 | – | – | –
TCTAGFSYNWPMCF (tested as crude clonal phage supernatant) [Phage-1448 peptide (SEQ ID NO: 1744)] | – | – | 0.06 | 1.85 | –
SCAAVFPYPWPPCF (peptide, not shown: large carriers, cysteine pairing not given here; also: fused to phage pIII protein, pIII and linker not given here, Clonal phage of the Peptide-92 optimisation library, tested as crude phage supernatant) [Phage-1477] | 0.06 | 1.75 | – | – | –
SCSAGAAWPWPWCL (tested as crude phage supernatant) [Phage-1532] | – | – | – | – | Anti-CD28 Fab signal in the presence of CD28 [5]: 0.08; Anti-CD28 Fab (SEQ ID NOs: 696, 697) signal [6]: 1.55
GCAAGFHYPWPLCL (peptide, not shown: large carriers, cysteine pairing not given here; also: displayed as fusion to phage pIII, pIII and linker not given here, Clonal phage of the Peptide-92 optimisation library, tested as crude phage supernatant) [Phage-1480] | 0.08 | 1.74 | – | – | –
TCSAGAHYEWPYCL (tested as crude clonal phage supernatant) [Phage-1454 peptide (SEQ ID NO: 1750)] | – | – | 0.11 | 1.82 | –
LCRAGAMWPWPTCL (tested as crude clonal phage supernatant) [Phage-1452 peptide (SEQ ID NO: 1748)] | – | – | 0.06 | 1.83 | –
QCAAGASYPWPVCL (tested as crude clonal phage supernatant) [Phage-1455 peptide (SEQ ID NO: 1751)] | – | – | 0.07 | 1.82 | –
SCKAGAPYYWPGCF (tested as crude phage supernatant) [Phage-1535] | – | – | – | – | Anti-CD28 Fab signal in the presence of CD28 [5]: 0.08; Anti-CD28 Fab (SEQ ID NOs: 696, 697) signal [6]: 1.54
SCAAVFSFPWSPCL (tested as crude clonal phage supernatant) [Phage-1446 peptide (SEQ ID NO: 1742)] | – | – | 0.08 | 1.87 | –
